Residue numbers refer to the chain shown, from its start.
Key:
[1] = system: T1, RRK(PEG2-Biotin)PGKLTCLASYCWLFWTGIA
T1 sequence: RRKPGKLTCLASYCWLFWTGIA

KLTALASYCWLF = system: T2, KLTALASYCWLF
T2 sequence: KLTALASYCWLF

[2] = system: T3, RRAPGKLT-Dap-LASY-Asp-WLFWTGIA-COOH
T3 sequence: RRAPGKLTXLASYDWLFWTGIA

[3] = system: T4, SKQGAPISPDrRAAGKLTCLASYCWLFWTGIA
T4 sequence: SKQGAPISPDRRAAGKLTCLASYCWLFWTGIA

[4] = system: T5, RRAPGCLTALASYCWLFWTGIA-CONH2
T5 sequence: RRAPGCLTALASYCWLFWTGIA

[5] = system: T6, SKQGRPISADrRAAGKLTCLASYCWLFWTGIA
T6 sequence: T4 sequence with A5R, P9A

[6] = system: T7, SLISMTNPSG RRVPG KLTCLASYCWLFWTGIA
T7 sequence: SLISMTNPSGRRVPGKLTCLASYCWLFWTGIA

R-k-MeLeu-TCLASYCWLF = system: T8, R-k-MeLeu-TCLASYCWLF
T8 sequence: RKLTCLASYCWLF

KKTCVASFCQMI = system: T9, KKTCVASFCQMI
T9 sequence: KKTCVASFCQMI

[7] = system: T10, RRAPGKLQCLASYCWLFWT-Aib-IA
T10 sequence: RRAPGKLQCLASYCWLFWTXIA

compound 24 = system: T11, compound 24
T11 sequence: T4 sequence with A5R

[8] = system: T12, R-MeArg-APGKLTCLASYCWLFWTGIA
T12 sequence: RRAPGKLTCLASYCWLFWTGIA

RRAPGKLQCLASYCWLFWTKIA = system: T13, RRAPGKLQCLASYCWLFWTKIA
T13 sequence: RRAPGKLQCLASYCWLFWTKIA

[9] = system: T14, SKQGRPISPDrRAAGKLTCLASYCWLFWTG
T14 sequence: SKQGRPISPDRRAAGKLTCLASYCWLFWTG

KLT-Glu-LASY-Dap-WLF = system: T15, KLT-Glu-LASY-Dap-WLF
T15 sequence: KLTELASYXWLF

EGRRDKLTCLASYCWLVGHGQH = system: T16, EGRRDKLTCLASYCWLVGHGQH
T16 sequence: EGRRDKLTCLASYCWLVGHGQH

KLT-Lys-LASY-Glu-WLF = system: T17, KLT-Lys-LASY-Glu-WLF
T17 sequence: KLTKLASYEWLF

[10] = system: T18, LQLSYGEQRQ SRAPG KLTCLASYCWLFWTGIA
T18 sequence: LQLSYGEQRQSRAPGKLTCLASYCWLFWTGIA

[11] = system: T19, PRISTVGPGSRSASGKLTCLASYCWLFWTGIA
T19 sequence: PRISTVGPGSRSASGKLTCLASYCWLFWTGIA

[12] = system: T20, RRAPGKLTCLASYCWLFWTGIA-COOH
T20 sequence: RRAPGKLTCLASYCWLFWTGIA

compound 25 = system: T21, compound 25
T21 sequence: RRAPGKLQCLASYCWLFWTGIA

rRAAGKLTCLASYCWLFATGIA = system: T22, rRAAGKLTCLASYCWLFATGIA
T22 sequence: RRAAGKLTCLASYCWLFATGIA

[13] = system: T23, RRAPGKLTCLASYCWLF STGVA THANTTATAQ
T23 sequence: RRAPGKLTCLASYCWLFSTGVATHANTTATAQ

rRAAGKATCLASYCWLFATGIA = system: T24, rRAAGKATCLASYCWLFATGIA
T24 sequence: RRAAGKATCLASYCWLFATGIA

RRAPGKLTCLASYCWLFwTGIA [14] = system: T25, RRAPGKLTCLASYCWLFwTGIA
T25 sequence: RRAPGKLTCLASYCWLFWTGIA

QQRQIKMSCLASYCWLFGSIPW = system: T26, QQRQIKMSCLASYCWLFGSIPW
T26 sequence: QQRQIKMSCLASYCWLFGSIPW

KLTCLASYcWLF = system: T27, KLTCLASYcWLF
T27 sequence: KLTCLASYCWLF

[15] = system: T28, RRAPGKLQCLASYCWLFWTG-Tle-A
T28 sequence: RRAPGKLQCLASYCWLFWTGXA

[16] = system: T29, RRAPGKLTCLASYCWLF WRGFA ERASEDTNQG
T29 sequence: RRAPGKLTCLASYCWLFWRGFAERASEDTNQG

KLTCLASYCWLFK = system: T30, KLTCLASYCWLFK
T30 sequence: KLTCLASYCWLFK

LTWREKLACLASYCWLFLWGAP = system: T31, LTWREKLACLASYCWLFLWGAP
T31 sequence: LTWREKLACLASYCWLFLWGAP

RRAPGKLTCLASYCWLFWTGIa [17] = system: T32, RRAPGKLTCLASYCWLFWTGIa
T32 sequence: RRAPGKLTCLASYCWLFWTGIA

RRAPGKLQCLASYCWLFWTGLA = system: T33, RRAPGKLQCLASYCWLFWTGLA
T33 sequence: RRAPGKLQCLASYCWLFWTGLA

[18] = system: T34, RRAPGKLTCLASYCWLF GSGIS LSRAPESAAP
T34 sequence: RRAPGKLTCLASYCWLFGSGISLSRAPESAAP

[19] = system: T35, RRAPGK-MeLeu-TCLASYCWLFWTGIA
T35 sequence: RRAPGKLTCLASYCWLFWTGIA

[20] = system: T36, RRAPGKLTCLASYCWLFWT-Sar-IA
T36 sequence: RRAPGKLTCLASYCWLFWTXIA

compound 20 = system: T37, compound 20
T37 sequence: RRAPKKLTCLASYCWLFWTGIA

[21] = system: T38, SKQGRPISSDrRASGKSTCLASYCWLFWTGIA
T38 sequence: T4 sequence with A5R, P9S, A14S, L17S

KLTCRASYCQLF = system: T39, KLTCRASYCQLF
T39 sequence: KLTCRASYCQLF

[22] = system: T40, GRAMAAEPWP RQAPG KLTCLASYCWLFWTGIA
T40 sequence: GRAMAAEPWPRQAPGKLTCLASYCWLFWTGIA

[23] = system: T41, k-MeLeu-TCLAS-(Y-OMe)-CWLF
T41 sequence: KLTCLASYCWLF

[24] = system: T42, RRAPGKCTALASYCWLFWTGIA-COOH
T42 sequence: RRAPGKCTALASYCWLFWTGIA

[25] = system: T43, rrapgkltclasycwlfwtgia (inverso)
T43 sequence: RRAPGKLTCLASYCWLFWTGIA

[26] = system: T44, PRIRTVGPGSRSASGKLTCIASYCWLFWTGIA
T44 sequence: T19 sequence with S4R, L20I

[27] = system: T45, C(PEG5k)GGG-RRAPGKLT-Asp-LASY-Lys-WLFWTGIA
T45 sequence: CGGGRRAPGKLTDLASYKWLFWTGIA

[28] = system: T46, Biotin-PEG2-LYTAWIKCQFARLPGCALSGRW
T46 sequence: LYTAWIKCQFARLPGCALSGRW

RKAPGKLQCLASYCWLFWTGIA = system: T47, RKAPGKLQCLASYCWLFWTGIA
T47 sequence: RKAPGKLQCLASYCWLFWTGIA

[29] = system: T48, RRAPGKLTCLASYCWLK(PEG2-Biotin)WTGIA
T48 sequence: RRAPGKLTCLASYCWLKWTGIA

[30] = system: T49, RRAPGCLTALASYCWLFWTGIA-COOH
T49 sequence: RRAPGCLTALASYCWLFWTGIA

RRAPGKLQCLASYCWLFKTGIA = system: T50, RRAPGKLQCLASYCWLFKTGIA
T50 sequence: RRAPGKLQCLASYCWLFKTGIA

[31] = system: T51, SKAGRPISPDrRAAGKLTCLASYCWLFWTGIA
T51 sequence: T4 sequence with Q3A, A5R

human Factor IXa
Vmax, FXa generation assay; (++) means 1-2 [1]: (++) | Vmax, FXa generation assay; (++) means 1-2 (KLTALASYCWLF): (++) | Vmax, FXa generation assay [2]: > 0.8 | Vmax, FXa generation assay [3]: > 3 | Vmax, FXa generation assay; (++) means 1-2 [4]: (++) | Vmax, FXa generation assay [5]: > 3 | Vmax, FXa generation assay [6]: > 2 | Vmax, FXa generation assay (R-k-MeLeu-TCLASYCWLF): > 3 | Vmax, FXa generation assay (KKTCVASFCQMI): > 4 | Vmax, FXa generation assay; (++) means 1-2 [7]: (++) | Vmax, FXa generation assay with hFIXa (compound 24): > 3 | Vmax, FXa generation assay; (++) means 1-2 [8]: (++) | Vmax, FXa generation assay; (++) means 1-2 (RRAPGKLQCLASYCWLFWTKIA): (++) | Vmax, FXa generation assay [9]: > 2 | Vmax, FXa generation assay; (++) means 1-2 (KLT-Glu-LASY-Dap-WLF): (++) | Vmax, FXa generation assay (EGRRDKLTCLASYCWLVGHGQH): > 0.3 | Vmax, FXa generation assay; (++) means 1-2 (KLT-Lys-LASY-Glu-WLF): (++) | Vmax, FXa generation assay; (++) means 1-2 [10]: (++) | Vmax, FXa generation assay [11]: > 3 | Vmax, FXa generation assay [12]: > 2 | Vmax, FXa generation assay with hFIXa (compound 25): > 2 | Vmax, FXa generation assay; (++) means 1-2 (rRAAGKLTCLASYCWLFATGIA): (++) | Vmax, FXa generation assay [13]: > 3 | Vmax, FXa generation assay; (++) means 1-2 (rRAAGKATCLASYCWLFATGIA): (++) | Vmax, FXa generation assay; (++) means 1-2 (RRAPGKLTCLASYCWLFwTGIA [14]): (++) | Vmax, FXa generation assay; (++) means 1-2 (QQRQIKMSCLASYCWLFGSIPW): (++) | Vmax, FXa generation assay (KLTCLASYcWLF): > 3 | Vmax, FXa generation assay [15]: > 2 | Vmax, FXa generation assay [16]: > 2 | Vmax, FXa generation assay (KLTCLASYCWLFK): > 3 | Vmax, FXa generation assay; (++) means 1-2 (LTWREKLACLASYCWLFLWGAP): (++) | Vmax, FXa generation assay; (++) means 1-2 (RRAPGKLTCLASYCWLFWTGIa [17]): (++) | Vmax, FXa generation assay (RRAPGKLQCLASYCWLFWTGLA): > 2 | Vmax, FXa generation assay [18]: > 3 | Vmax, FXa generation assay; (++) means 1-2 [19]: (++) | Vmax, FXa generation assay [20]: > 3 | Vmax, FXa generation assay with hFIXa (compound 20): > 2 | Vmax, FXa generation assay [21]: > 3 | Vmax, FXa generation assay (KLTCRASYCQLF): > 2 | Vmax, FXa generation assay [22]: > 2 | Vmax, FXa generation assay [23]: > 3 | Vmax, FXa generation assay; (++) means 1-2 [24]: (++) | Vmax, FXa generation assay [25]: > 2 | Vmax, FXa generation assay [26]: > 2 | Vmax, FXa generation assay; (++) means 1-2 [27]: (++) | Vmax, FXa generation assay [28]: > 1.5 | Vmax, FXa generation assay (RKAPGKLQCLASYCWLFWTGIA): > 2 | Vmax, FXa generation assay [29]: > 2 | Vmax, FXa generation assay [30]: > 2 | Vmax, FXa generation assay (RRAPGKLQCLASYCWLFKTGIA): > 0.2 | Vmax, FXa generation assay [31]: > 2
